Experimental data from patent US20220112284A1 (Innovent, published 2022).

Experiments:
[1] = biological target: T1, human LAG-3 on 293 cells overexpressing human LAG-3 (293-LAG-3) (human, UniProt P18627 23-525); test: FACS on 293-LAG-3 cells, PE anti-human Fc detection
T1 construct: whole, on cells; also called LAG-3 on the cell surface
T1 sequence (looked up): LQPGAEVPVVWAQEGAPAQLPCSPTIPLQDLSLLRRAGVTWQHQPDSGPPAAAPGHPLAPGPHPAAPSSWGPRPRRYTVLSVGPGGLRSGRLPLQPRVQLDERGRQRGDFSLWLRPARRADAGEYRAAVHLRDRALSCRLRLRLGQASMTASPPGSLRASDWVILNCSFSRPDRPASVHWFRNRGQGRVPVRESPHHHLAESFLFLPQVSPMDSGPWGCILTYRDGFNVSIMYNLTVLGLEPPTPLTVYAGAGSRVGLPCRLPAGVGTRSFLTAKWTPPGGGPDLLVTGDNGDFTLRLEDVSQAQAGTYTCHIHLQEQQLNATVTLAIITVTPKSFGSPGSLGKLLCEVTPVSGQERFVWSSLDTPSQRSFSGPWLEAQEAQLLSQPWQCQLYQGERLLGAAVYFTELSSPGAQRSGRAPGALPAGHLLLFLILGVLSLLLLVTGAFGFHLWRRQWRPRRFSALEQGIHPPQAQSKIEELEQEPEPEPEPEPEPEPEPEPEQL
Protocol: (§1) 2) Detection: The cell suspension was centrifuged at 400 g on a centrifuge for 5 min to remove the cell culture medium. The serial dilutions of the bispecific antibody IGN-LP disclosed herein and anti-humanized Nb-Fc and anti-LAG-3 antibody ADI31853 as controls were added to the U-shaped plate at 100 μL each, and then the cells were resuspended and put onto the ice to stand for 30 min. The cell suspension was centrifuged at 400 g for 5 min to remove the supernatant, and the cells were washed with PBS to remove the unbound antibodies. The resulting cell suspension was centrifuged at 400 g for 5 min to remove PBS. 100 μL of the solution of PE-conjugated anti-human Fc antibody (Jackson Immuno Research) diluted at a ratio of 1:200 was added to each well, and the cells were incubated in the dark on the ice for 30 min. Then the cell suspension was centrifuged at 400 g for 5 min to remove the supernatant. The cells were washed with PBS once to remove the unbound PE-conjugated anti-human Fc antibody. Then the cells were resuspended with 100 μL of PBS, and the binding of the antibody to cells was assayed by FACS.

human LAG-3-his [2] = biological target: T2, human LAG-3-his (human, UniProt P18627 23-450); test: ForteBio Octet BLI; antibody on AHQ tip, human LAG-3-His 100 nM in solution, monovalent
T2 construct: Bought reagent; also called LAG-3 protein; not shown: His tag
T2 sequence (looked up): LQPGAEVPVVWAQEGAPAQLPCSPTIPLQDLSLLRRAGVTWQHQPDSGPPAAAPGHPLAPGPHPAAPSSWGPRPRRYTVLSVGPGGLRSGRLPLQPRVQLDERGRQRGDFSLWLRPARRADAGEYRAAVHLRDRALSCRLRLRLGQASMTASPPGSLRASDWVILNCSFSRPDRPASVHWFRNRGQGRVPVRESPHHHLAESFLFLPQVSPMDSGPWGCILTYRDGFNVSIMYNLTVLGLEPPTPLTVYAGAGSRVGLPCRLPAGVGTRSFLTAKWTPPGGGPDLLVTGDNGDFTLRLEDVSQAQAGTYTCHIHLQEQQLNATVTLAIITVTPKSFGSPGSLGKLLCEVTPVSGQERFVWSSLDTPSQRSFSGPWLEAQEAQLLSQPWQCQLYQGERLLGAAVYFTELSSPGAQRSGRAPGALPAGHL
Protocol: (§2) The equilibrium dissociation constant (KD) for the binding of the prepared exemplary anti-LAG-3/PD-L1 bispecific antibody IGN-LP disclosed herein to LAG-3 and PD-L1 was determined by a kinetic binding assay using the Octet system manufactured by ForteBio. A ForteBio affinity assay was performed according to the method reported in the literature (Estep, P, et al., High throughput solution Based measurement of antibody-antigen affinity and epitope binning MAbs, 2013, 5(2): p. 270-278). Briefly:
(§3) The anti-human IgG Fc biosensor AHQ was immersed in each well containing the antibody solution at room temperature for 600 s to load the samples. The sensor was then washed in SD buffer until it returned to the baseline, and then immersed in a well containing 100 μL of the antigen solution to monitor the binding of the antibody to the antigen. The sensor was then transferred to a well containing 100 uL of the SD buffer to monitor the antibody dissociation (the operation procedures were set as: Baseline, Loading ˜1 nm, Baseline, Association and Dissociation, each running for a time depending on the binding and dissociation rates of the samples). The rotation speed was 400 rpm and the temperature was 30° C. […]

human LAG-3-his [3] = biological target: T2, human LAG-3-his; test: ForteBio Octet BLI; antibody on AHQ tip, human LAG-3-His 100 nM in solution
Protocol: as §2, §3

human PD-L1-his [4] = biological target: T3, human PD-L1-his (human, UniProt Q9NZQ7 19-238); test: ForteBio Octet BLI; antibody on AHQ tip, human PD-L1-His 100 nM in solution
T3 construct: Bought reagent; also called PD-L1 protein; not shown: His tag
Protocol: as §2, §3

[5] = biological target: T4, human PD-L1 on CHOS cells overexpressing PD-L1 (CHOS-PD-L1) (human, UniProt Q9NZQ7 19-290); test: FACS on CHOS-PD-L1 cells, PE anti-human Fc detection
T4 construct: whole, on cells; also called CHO-PD-L1; PD-L1 on the cell surface
Protocol: as §1

human PD-L1-his [6] = biological target: T3, human PD-L1-his; test: ForteBio Octet BLI; antibody on AHQ tip, human PD-L1-His 100 nM in solution, monovalent
Protocol: as §2, §3

T3 sequence (Q9NZQ7 19-238 limits assumed): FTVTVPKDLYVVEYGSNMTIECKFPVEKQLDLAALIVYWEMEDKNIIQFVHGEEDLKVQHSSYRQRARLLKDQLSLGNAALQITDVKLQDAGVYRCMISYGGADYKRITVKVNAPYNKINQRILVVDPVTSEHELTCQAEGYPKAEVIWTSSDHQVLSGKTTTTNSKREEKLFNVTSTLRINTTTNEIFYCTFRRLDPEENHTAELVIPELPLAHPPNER
T4 sequence (Q9NZQ7 19-290): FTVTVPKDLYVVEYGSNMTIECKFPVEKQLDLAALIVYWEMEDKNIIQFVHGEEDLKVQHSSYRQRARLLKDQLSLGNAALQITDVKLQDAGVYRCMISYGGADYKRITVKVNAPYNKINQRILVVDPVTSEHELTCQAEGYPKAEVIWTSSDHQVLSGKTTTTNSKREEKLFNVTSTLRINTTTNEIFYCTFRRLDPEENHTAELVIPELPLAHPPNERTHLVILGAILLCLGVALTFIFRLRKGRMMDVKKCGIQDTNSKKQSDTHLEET

B1: anti-LAG-3 antibody ADI-31853 (antibody, human IgG1, kappa, L234A L235A, V domains shown)
VH: QLQLQESGPGLVKPSETLSLTCTVSGGSIYSESYYWGWIRQPPGKGLEWIGSIVYSGYTYYNPSLKSRVTISVDTSKNQFSLKLSSVTAADTAVYYCARVRTWDAAFDIWGQGTMVTVSS
VL: DIQMTQSPSSLSASVGDRVTITCQASQDISNYLNWYQQKPGKAPKLLIYDASNLETGVPSRFSGSGSGTDFTFTISSLQPEDIATYYCQQVLELPPWTFGGGTKVEIKR
notes: also called parental anti-LAG-3 antibody
[1]
  EC50: 0.504 nM
Human LAG-3-his [2]
  Kd: 1.56 nM
Human LAG-3-his [3]
  koff: 0.0002 s⁻¹
  kon: 128000 M⁻¹ s⁻¹

B2: anti-PD-L1 humanized Nb-Fc antibody (Fc fusion)
chain: QVQLQESGGGLVQPGGSLRLSCAASAYTISRNSMGWFRQAPGKGLEGVAAIESDGSTSYSDSVKGRFTISLDNSKNTLYLEMNSLRAEDTAVYYCAAPKVGLGPRTALGHLAFMTLPALNYWGQGTLVTVSS
notes: The VHH is inferred from the words 'parent antibody' / 'parental anti-PD-L1 antibody'; also called anti-humanized Nb-Fc; parental anti-PD-L1 antibody; not shown: the antibody was obtained according to ZL201710657665.3
Human PD-L1-his [4]
  koff: 0.00356 s⁻¹
  kon: 310000 M⁻¹ s⁻¹
[5]
  EC50: 1.2 nM
Human PD-L1-his [6]
  Kd: 11.5 nM
